In patent US20130177572A1:

What was measured:
[1] = target: human PDGFR-hIgG1-Fc chimeric fusion protein (human) (UniProt P09619); experiment: SPR (Biacore T100), PDGFR-Fc captured by anti-hIgG1 Fc, 1:1 model
human PDGFRβ (human) = human PDGFRβ (human) (UniProt P09619); experiment: solution equilibrium binding: 35S-Met labelled in vitro translated protein, human PDGFRβ titrated (0 to 20 nM), capture on protein A beads, scintillation counts
Chain of human PDGFRβ (human) (P09619 33-530 limits assumed): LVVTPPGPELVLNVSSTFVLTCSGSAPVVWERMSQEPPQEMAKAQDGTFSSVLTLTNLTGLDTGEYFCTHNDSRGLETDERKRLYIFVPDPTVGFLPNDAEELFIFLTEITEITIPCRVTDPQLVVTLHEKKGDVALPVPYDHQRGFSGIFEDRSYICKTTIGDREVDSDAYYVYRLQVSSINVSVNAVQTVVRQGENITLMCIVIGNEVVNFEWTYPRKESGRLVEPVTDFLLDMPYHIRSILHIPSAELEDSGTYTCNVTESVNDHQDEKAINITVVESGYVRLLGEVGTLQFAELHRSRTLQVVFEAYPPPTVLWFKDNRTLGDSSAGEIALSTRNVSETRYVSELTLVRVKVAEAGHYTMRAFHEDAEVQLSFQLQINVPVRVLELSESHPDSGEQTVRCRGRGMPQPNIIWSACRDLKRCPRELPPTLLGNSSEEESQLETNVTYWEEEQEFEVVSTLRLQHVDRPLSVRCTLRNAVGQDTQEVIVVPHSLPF

Chain of human PDGFR-hIgG1-Fc chimeric fusion protein (human) (P09619 33-530 limits assumed, stated change not applied): as the sequence (P09619 33-530 limits assumed) above

Kd [1]: 2.18 nM
koff [1]: 0.00154 s⁻¹
kon [1]: 706000 M⁻¹ s⁻¹
Kd (human PDGFRβ (human)): 0.03 nM
B1: XB2202/A4 scFv (scFv, part only; not given: Linker, domain order and tag, V domains shown, not shown: another chain or arm of the molecule; small tags and cut ends)
VH: QVQLVQSGAEVKKPGSSVRVSCKASGGTFSRHAISWVRQAPGQGLEWIGGILPILKTPNYAQRFQGRVTINADESTSTVYMEMSSLRSEDTAVYYCATHGGDRSYWGQGTLVTVSS
VL: DVVMTQSPSSLSASVGDRVTITCQASQDISNWLNWYQQKPGKAPKLLIYEASNLETGVPSRFSGSGSGTDFTFTISSLQPEDIATYYCQQYNNVLRTFGQGTKVEIK
